pKd: −log10 of the molar value.
Biological target: CD3 ζ SNID2 peptide (22-mer)
Test: ITC; MicroCal iTC200; 20 mM HEPES (pH 8.0), 100 mM NaCl, 25 °C; typically Nef at 200 μM injected from the syringe to 20 μM CD3 ζ in the cell

CD3 ζ SNID2 peptide (22-mer), sequence (P20963 other isoform, or with tags, fused parts or gaps): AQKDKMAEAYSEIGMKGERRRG

Substance: SIV_(mac239) Nef 66–235 (SIV Nef-B) (from UniProt Q5QGG3 66-235) (domain or fragment)
- pKd: 5.59

Reference: PMC5585231
